The target in data set [1] is GFP-MAGI1 Y373F (human MAGI1c-Y373F-GFP) (UniProt Q96QZ7).
For data set [2], the target named is GFP-tagged MAGI1 WT (human MAGI1c, pCMV6-AC-GFP-MAGI1c WT, Origene #RG212712) (UniProt Q96QZ7).
For data set [3], the target named is myc-tagged MAGI1 deletion of GUK domain (murine, pCDNA3.1) (UniProt Q6RHR9).
Data set [4] addresses myc-tagged MAGI1 deletion of GUK-WW domains (murine, pCDNA3.1) (UniProt Q6RHR9).
The target of data set [5] is myc-tagged MAGI1 deletion of WW domain (murine, pCDNA3.1) (UniProt Q6RHR9).
myc-tagged MAGI1 deletion of WW domain (murine, pCDNA3.1), sequence (Q6RHR9 other isoform, or with tags, fused parts or gaps): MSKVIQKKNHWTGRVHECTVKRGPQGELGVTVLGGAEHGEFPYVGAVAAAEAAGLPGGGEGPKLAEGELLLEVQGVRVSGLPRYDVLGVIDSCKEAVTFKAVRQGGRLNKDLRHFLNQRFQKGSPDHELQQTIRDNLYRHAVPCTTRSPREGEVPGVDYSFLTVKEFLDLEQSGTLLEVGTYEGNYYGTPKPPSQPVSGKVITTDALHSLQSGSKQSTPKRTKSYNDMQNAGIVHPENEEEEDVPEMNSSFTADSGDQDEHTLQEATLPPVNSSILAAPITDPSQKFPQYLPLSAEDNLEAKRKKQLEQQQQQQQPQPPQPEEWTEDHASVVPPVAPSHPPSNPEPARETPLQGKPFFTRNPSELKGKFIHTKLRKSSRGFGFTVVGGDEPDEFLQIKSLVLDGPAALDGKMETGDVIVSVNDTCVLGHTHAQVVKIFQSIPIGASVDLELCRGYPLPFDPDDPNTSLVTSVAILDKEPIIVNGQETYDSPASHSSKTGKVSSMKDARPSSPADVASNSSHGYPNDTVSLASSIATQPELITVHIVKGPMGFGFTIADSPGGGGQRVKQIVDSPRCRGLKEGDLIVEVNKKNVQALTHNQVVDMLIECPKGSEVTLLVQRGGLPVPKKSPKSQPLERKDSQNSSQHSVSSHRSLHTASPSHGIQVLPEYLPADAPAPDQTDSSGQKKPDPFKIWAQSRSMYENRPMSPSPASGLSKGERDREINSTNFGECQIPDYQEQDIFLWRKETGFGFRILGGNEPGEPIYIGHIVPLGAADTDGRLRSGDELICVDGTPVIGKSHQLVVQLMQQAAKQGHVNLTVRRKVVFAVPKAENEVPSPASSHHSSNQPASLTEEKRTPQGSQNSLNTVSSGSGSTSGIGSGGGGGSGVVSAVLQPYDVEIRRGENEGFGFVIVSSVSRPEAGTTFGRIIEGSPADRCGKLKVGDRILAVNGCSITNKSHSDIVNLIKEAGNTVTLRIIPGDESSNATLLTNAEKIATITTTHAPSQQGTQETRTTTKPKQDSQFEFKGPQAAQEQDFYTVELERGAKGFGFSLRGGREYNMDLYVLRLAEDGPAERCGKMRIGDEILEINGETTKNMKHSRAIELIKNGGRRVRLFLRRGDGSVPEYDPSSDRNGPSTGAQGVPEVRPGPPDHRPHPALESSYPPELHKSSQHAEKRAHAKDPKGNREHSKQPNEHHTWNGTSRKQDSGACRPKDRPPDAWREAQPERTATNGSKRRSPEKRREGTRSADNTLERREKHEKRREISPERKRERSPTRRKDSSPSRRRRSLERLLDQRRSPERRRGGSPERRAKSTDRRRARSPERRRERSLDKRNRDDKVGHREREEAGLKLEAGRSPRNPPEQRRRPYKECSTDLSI

myc-tagged MAGI1 deletion of GUK-WW domains (murine, pCDNA3.1), sequence (Q6RHR9 other isoform, or with tags, fused parts or gaps): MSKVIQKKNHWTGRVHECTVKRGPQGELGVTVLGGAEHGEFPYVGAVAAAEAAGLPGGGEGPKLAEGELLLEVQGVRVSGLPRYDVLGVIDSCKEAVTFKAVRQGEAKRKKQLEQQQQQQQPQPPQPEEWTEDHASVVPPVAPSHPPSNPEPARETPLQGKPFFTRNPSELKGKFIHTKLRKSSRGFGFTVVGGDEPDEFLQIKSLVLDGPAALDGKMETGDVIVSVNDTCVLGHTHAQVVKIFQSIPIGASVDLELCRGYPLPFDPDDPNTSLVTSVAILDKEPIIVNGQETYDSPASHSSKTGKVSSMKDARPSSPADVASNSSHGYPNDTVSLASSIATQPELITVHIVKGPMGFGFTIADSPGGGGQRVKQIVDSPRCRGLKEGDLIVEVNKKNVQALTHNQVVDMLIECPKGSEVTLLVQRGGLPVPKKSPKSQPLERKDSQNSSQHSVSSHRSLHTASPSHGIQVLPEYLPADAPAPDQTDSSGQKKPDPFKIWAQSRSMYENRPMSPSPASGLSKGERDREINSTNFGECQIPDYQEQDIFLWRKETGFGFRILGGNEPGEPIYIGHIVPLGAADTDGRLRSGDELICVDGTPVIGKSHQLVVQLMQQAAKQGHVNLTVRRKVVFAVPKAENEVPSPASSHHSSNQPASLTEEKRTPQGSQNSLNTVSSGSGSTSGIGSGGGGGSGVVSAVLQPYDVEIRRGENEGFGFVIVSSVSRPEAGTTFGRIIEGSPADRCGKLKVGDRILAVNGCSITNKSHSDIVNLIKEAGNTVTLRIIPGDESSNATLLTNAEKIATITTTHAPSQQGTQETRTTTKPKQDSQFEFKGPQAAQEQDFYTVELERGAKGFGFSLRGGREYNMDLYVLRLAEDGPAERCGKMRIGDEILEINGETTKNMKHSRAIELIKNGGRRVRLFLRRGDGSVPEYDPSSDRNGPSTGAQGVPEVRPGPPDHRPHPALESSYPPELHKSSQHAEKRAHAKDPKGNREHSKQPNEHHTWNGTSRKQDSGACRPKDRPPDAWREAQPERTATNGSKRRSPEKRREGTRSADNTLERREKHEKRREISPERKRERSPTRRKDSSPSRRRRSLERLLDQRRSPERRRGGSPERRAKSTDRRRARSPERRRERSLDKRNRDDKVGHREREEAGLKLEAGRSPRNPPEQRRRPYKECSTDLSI
myc-tagged MAGI1 deletion of GUK domain (murine, pCDNA3.1), sequence (Q6RHR9 other isoform, or with tags, fused parts or gaps): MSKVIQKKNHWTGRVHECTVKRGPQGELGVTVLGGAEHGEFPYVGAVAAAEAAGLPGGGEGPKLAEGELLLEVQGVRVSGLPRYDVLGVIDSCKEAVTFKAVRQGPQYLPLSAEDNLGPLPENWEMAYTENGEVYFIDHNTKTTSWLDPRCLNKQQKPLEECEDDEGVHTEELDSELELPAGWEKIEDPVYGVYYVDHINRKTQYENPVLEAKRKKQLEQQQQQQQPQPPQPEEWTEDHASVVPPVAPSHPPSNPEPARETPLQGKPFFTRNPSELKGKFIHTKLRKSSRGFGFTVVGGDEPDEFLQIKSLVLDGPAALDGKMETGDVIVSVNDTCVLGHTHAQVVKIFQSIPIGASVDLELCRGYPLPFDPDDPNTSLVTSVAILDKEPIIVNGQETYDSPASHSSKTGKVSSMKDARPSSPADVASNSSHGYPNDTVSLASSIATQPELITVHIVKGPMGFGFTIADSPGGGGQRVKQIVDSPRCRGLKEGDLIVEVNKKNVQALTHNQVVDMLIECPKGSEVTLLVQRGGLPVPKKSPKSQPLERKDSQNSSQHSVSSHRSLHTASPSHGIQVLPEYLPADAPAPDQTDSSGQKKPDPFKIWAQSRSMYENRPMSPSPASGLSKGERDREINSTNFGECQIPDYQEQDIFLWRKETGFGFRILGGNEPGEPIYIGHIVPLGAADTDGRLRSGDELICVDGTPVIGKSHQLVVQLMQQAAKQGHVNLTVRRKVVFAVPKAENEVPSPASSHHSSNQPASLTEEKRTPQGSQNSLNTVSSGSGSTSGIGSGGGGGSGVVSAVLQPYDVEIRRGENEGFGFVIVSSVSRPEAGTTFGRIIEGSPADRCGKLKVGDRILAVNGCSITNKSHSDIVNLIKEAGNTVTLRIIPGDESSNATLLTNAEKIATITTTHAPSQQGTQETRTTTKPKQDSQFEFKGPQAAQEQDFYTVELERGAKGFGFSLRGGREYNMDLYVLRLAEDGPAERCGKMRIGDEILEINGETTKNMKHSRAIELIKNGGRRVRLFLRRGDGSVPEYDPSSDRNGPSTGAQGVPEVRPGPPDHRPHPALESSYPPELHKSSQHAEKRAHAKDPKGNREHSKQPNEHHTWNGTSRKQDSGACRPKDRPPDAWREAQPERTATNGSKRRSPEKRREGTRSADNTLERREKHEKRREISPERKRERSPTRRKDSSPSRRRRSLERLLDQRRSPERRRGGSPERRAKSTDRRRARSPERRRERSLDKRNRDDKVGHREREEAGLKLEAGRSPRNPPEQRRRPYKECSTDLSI

In the case of “proto-oncogene tyrosine-protein kinase Src (SRC), wild type, expressed from pCMV SRC WT in 293T cells”, the “phosphorylation of MAGI1 at Y373 (western blot with rabbit antisera against pMAGI1 Y373, 293T co-expression)” value in data set [1] was “co-expression of SRC and WT MAGI1 but not Y373F mutant resulted in strong phosphorylation of MAGI1 at Y373”; in data set [2], “co-expression of SRC and WT MAGI1 but not Y373F mutant resulted in strong phosphorylation of MAGI1 at Y373”. The “Y373 phosphorylation (western blot with pMAGI1 Y373 antisera, 293T co-expression)” value in data set [3], in data set [4] and in data set [5] was “Y373 phosphorylation was abolished when WW domain was absent but not GUK” each time.

The values above are taken from patent US20250057840.
